Measurements reported in KR20220072468A (dated 2022).

Molecular target: T1, 인간 TIGIT-His (human, UniProt Q495A1 22-141)
T1 construct: extracellular domain; also called TIGIT-6x His; TIGIT 항원
T1 sequence: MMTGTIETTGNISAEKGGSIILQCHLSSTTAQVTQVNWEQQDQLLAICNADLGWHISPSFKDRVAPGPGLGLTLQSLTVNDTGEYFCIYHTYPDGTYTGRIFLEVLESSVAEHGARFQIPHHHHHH
Assay: BLI (Octet QK), antibody on AHC biosensor, human TIGIT-His 15 nM ~ 1.88 nM, 1:1 global fit

B1: SA2209 (antibody, V domains shown)
VH: QVQLQESGPGLVKPSGTLSLTCAVSGVSIRQGHWWSWVRQPPGKGLEWIGEIYQTGRTNYNPSLKSRVTISVGKSRNHISLKLSSVTAADTAVYYCTTGSGWYPIDYWGQGTLVTVSS
VL: SYELTQDPAVSVALGQTVRITCQGDSLRGFYASWYQQKPGQAPLLVLYGVKDRPSGIPDRFSGSRSGTTASLTITGAQAEDEADYYCNSRDSNGAMMFGGGTKLTVL
notes: also called 항-TIGIT 항체; anti-TIGIT antibody
  Kd: 3.43 nM
  koff: 0.00136 s⁻¹
  kon: 397000 M⁻¹ s⁻¹
